Measured values from PMC9851909, “Structure of a volume-regulated heteromeric LRRC8A/C channel” (Nature Structural & Molecular Biology, 2022).
“And” between values parts separate entries of the source, which are not always exact repeats. Equal values may be shown once. One block for each molecule: values may come before it.

Assays:
[1] = target: murine LRRC8C, full length (murine) (UniProt Q8R502); assay: affinity purification with mass spectrometry; differentially tagged murine LRRC8A (or LRRC8A^SAM) and LRRC8C co-expressed in HEK293S GnTI- or LRRC8-/- cells at A:C DNA ratios of 1:1 or 1:3; tandem affinity purification (Ni-NTA, then Streptactin) in digitonin, 25 mM Tris pH 8.5, 250 mM NaCl, 4 °C; LC-MS/MS absolute quantification with isotope-labelled peptides
[2] = target: murine LRRC8C, full length (murine) (UniProt Q8R502); assay: cryo-EM structure; tandem-purified LRRC8A/C (A:C DNA 1:1 and 1:3) in digitonin with tag-free Sb1 added at a 1.5 molar excess before vitrification; C1; high resolution only for the 1:1 sample
[3] = target: the molecule itself; assay: cryo-EM structure; homomeric LRRC8C at 5 mg/ml in digitonin, three data sets, two of them with Sb1 added at a 1:1.5 molar excess (per LRRC8C subunit) as negative control; C7 symmetry
[4] = target: T1, endogenous LRRC8C of HEK293 cells (human (endogenous in HEK293T), UniProt Q8TDW0 1-803); assay: affinity purification with mass spectrometry; pairs of endogenous LRRC8 subunits in the channels isolated on SBP-tagged Sb1 from HEK293T (WT) or LRRC8^B,D,E-/- cells; shotgun LC-MS/MS and absolute quantification with two isotope-labelled reference peptides per subunit; conditions: partners not purified
T1 construct: LRRC8C, endogenous in HEK293 cells; also called C subunit; source: endogenous, HEK293T and HEK293 LRRC8^B,D,E-/- cells, lysate in 2% GDN
T1 sequence (looked up): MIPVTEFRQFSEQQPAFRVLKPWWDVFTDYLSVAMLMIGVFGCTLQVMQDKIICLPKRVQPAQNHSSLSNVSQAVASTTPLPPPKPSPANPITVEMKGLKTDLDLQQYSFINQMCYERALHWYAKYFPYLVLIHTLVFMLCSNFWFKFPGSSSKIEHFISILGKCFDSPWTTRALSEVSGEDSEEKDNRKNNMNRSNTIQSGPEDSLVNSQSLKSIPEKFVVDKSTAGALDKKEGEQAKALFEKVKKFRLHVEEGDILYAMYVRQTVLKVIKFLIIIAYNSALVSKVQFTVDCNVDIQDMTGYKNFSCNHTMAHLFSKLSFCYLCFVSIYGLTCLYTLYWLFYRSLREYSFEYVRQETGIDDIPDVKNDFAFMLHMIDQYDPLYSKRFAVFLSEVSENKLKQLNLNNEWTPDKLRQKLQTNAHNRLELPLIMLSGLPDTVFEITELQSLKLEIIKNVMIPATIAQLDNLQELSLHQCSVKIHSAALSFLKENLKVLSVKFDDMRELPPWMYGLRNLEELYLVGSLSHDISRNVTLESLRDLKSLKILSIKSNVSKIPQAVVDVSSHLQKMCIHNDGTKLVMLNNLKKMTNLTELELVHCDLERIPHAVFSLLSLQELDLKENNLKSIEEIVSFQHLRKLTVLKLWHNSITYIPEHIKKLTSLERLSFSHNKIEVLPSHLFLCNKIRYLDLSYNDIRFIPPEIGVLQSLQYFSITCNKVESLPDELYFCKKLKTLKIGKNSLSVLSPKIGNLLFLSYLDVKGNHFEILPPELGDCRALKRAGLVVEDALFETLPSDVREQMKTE

[5] = target: T2, endogenous LRRC8A of HEK293 cells (human (endogenous in HEK293T), UniProt Q8IWT6); assay: affinity purification with mass spectrometry; pairs of the bait Sb1: endogenous LRRC8 channels from HEK293T (WT) or LRRC8^B,D,E-/- cells isolated on SBP-tagged Sb1 and Streptactin resin (Sb1 either expressed in the same cells or purified and bound to the resin before the lysate was loaded; which protocol for which sample is not told); 2% GDN lysis, 36 mM Tris pH 8.5, 150 mM NaCl; tryptic digest, LC-MS/MS
T2 construct: LRRC8A, endogenous in HEK293 cells; also called A subunit; SWELL1; source: endogenous, HEK293T and HEK293 LRRC8^B,D,E-/- cells, lysate in 2% GDN; isolated on SBP-tagged Sb1

Molecule: LRRC8A^SAM, construct for co-expression with LRRC8C (from UniProt Q80WG5 1-67; Q80WG5 93-810)
stoichiometry N [1]: 2 A:C

B1: murine LRRC8C, full length (natural protein, UniProt Q8R502 1-803, looked up)
chain: MIPVTEFRQFSEQQPAFRVLKPWWDVFTDYLSVAMLMIGVFGCTLQVMQDKIICLPKRVQPAQNHSSVPNVSQAVISTTPLPPPKPSPTNPATVEMKGLKTDLDLQQYSFINQMCYERALHWYAKYFPYLVLIHTLVFMLCSNFWFKFPGSSSKIEHFISILGKCFDSPWTTRALSEVSGEDSEEKDNRKNNMNRSGTIQSGPEGNLVRSQSLKSIPEKFVVDKSAAGALDKKEGEQAKALFEKVKKFRLHVEEGDILYAMYVRQTVLKVIKFLIIIAYNSALVSKVQFTVDCNVDIQDMTGYKNFSCNHTMAHLFSKLSFCYLCFVSIYGLTCLYTLYWLFYRSLREYSFEYVRQETGIDDIPDVKNDFAFMLHMIDQYDPLYSKRFAVFLSEVSENKLKQLNLNNEWTPDKLRQKLQTNAHNRLELPLIMLSGLPDTVFEITELQSLKLEIIKNVMIPATIAQLDNLQELCLHQCSVKIHSAALSFLKENLKVLSVKFDDMRELPPWMYGLRNLEELYLVGSLSHDISKNVTLESLRDLKSLKILSIKSNVSKIPQAVVDVSSHLQKMCVHNDGTKLVMLNNLKKMTNLTELELVHCDLERIPHAVFSLLSLQELDLKENNLKSIEEIVSFQHLRKLTVLKLWYNSIAYIPEHIKKLTSLERLFFSHNKVEVLPSHLFLCNKIRYLDLSYNDIRFIPPEIGVLQSLQYFSITCNKVESLPDELYFCKKLKTLKIGKNSLSVLSPKIGNLLFLSYLDIKGNHFEVLPPELGDCRALKRAGLVVEDALFETLPSDVREQMKAD
notes: LRRC8C, mouse; A remnant of the 3C site probably stays at the C-terminus; also called C subunit; C1; source: HEK293 LRRC8-/- cells (homomer; LRRC8A/C without Sb1; LRRC8A^SAM/C) or HEK293S GnTI- cells (LRRC8A/C/Sb1 samples), transfected, purified (Streptactin, SEC; tandem purification for heteromers) in digitonin; not shown: Venus, C-terminal, cleaved; myc, C-terminal, cleaved; SBP, C-terminal, …
stoichiometry N [3]: 7

Other lines, results leading:

stoichiometry N [2]: 2 A:C | stoichiometry N [1]: 2 A:C and 1.8 A:C
Molecule: murine LRRC8A (from UniProt Q80WG5 1-810) (natural protein)

stoichiometry N [4]: 2.9 A:C and 1.8 A:C
B2: endogenous LRRC8A of HEK293 cells (natural protein, human (endogenous in HEK293T), UniProt Q8IWT6 1-810, looked up)
chain: MIPVTELRYFADTQPAYRILKPWWDVFTDYISIVMLMIAVFGGTLQVTQDKMICLPCKWVTKDSCNDSFRGWAAPGPEPTYPNSTILPTPDTGPTGIKYDLDRHQYNYVDAVCYENRLHWFAKYFPYLVLLHTLIFLACSNFWFKFPRTSSKLEHFVSILLKCFDSPWTTRALSETVVEESDPKPAFSKMNGSMDKKSSTVSEDVEATVPMLQRTKSRIEQGIVDRSETGVLDKKEGEQAKALFEKVKKFRTHVEEGDIVYRLYMRQTIIKVIKFILIICYTVYYVHNIKFDVDCTVDIESLTGYRTYRCAHPLATLFKILASFYISLVIFYGLICMYTLWWMLRRSLKKYSFESIREESSYSDIPDVKNDFAFMLHLIDQYDPLYSKRFAVFLSEVSENKLRQLNLNNEWTLDKLRQRLTKNAQDKLELHLFMLSGIPDTVFDLVELEVLKLELIPDVTIPPSIAQLTGLKELWLYHTAAKIEAPALAFLRENLRALHIKFTDIKEIPLWIYSLKTLEELHLTGNLSAENNRYIVIDGLRELKRLKVLRLKSNLSKLPQVVTDVGVHLQKLSINNEGTKLIVLNSLKKMANLTELELIRCDLERIPHSIFSLHNLQEIDLKDNNLKTIEEIISFQHLHRLTCLKLWYNHIAYIPIQIGNLTNLERLYLNRNKIEKIPTQLFYCRKLRYLDLSHNNLTFLPADIGLLQNLQNLAITANRIETLPPELFQCRKLRALHLGNNVLQSLPSRVGELTNLTQIELRGNRLECLPVELGECPLLKRSGLVVEEDLFNTLPPEVKERLWRADKEQA
notes: LRRC8A, endogenous in HEK293 cells; also called A subunit; SWELL1; source: endogenous, HEK293T and HEK293 LRRC8^B,D,E-/- cells, lysate in 2% GDN; isolated on SBP-tagged Sb1

binding result [5]: binds
B3: SBP-tagged sybody Sb1 (VHH)
VHH: QVQLVESGGGLVQAGGSLRLSCAASGFPVGRHFMYWYRQAPGKEREWVAAIYSYGEYTEYADSVKGRFTISRDNAKNTVYLQMNSLKPEDTAVYYCYVYVGNEYWGQGTQVTVSA
notes: as the chain of m3 (sybody Sb1), here with a C-terminal 3C site, myc tag and SBP tag (pcDXc3MS); they are in PDB 8B41 and PDB 7P5V; also called SBP-tagged Sb1; immobilized Sb1; not shown: myc, C-terminal, kept; SBP, C-terminal, kept
